Data taken from patent US20260055200A1, “COMBINATION THERAPIES” (Alligator Bioscience AB, priority 2022, published 2026).

Tests used:
[1] = test system: MB49-FFX-ACQ bladder carcinoma cells; assay: Chemotherapy-resistant MB49-FFX-ACQ tumour model in hCD40tg mice; format: in vivo, mouse; conditions: FIG. 7B/7C
Experimental: Note: All mice were dosed with flat doses and mg/kg doses reported herein are based on an average mouse weight of 20 g (0.02 kg).
As FOLFIRINOX is composed of four individual components, it was dosed over the course of two days, for a total of three cycles. Mice first received oxaliplatin followed by irinotecan, followed the day after by folinic acid and 2 hours after that, mice were dosed with 5-fluorouracil.
Three days following the initiation of the dosing of FOLFIRINOX, mitazalimab was administered in 5% glucose (dextrose buffer) at 5 mg/kg.
The dosing regimen applied in the two efficacy studies detailing number of doses and their relation to one another is outlined in FIG. 5. […]
On day 0, ten- to twelve-week-old female hCD40tg mice were injected subcutaneously on the right hind flank with 0.4×10^6 MB49-FOLFIRINOX-ACQ in a volume of 100 μl PBS. […] Controls or antibodies were administered as outlined in Table 24, and mice were monitored shortly following each treatment to detect potential signs of toxicity. Tumor volume was measured three times weekly with a calliper and calculated as: ((width/2×length/2×height/2)×[…]). […]
Collected data was analyzed using Kaplan Meier and Log-rank (Mantel-Cox) for survival and Mann-Whitney, non-parametric, 2-tail for FACS data and tumor growth using GraphPad Prism program (*, p<0.05; **, p<0.01). […]

[2] = test system: human tumours transplanted into NSG mice; bladder cancer cells in hCD40tg mice; conditions: cited from earlier work

B1: Mitazalimab: agonistic, human monoclonal (IgG1) antibody targeting CD40 (antibody, chains of the INN, looked up, V domains shown)
VH: EVQLLESGGGLVQPGGSLRLSCAASGFTFSTYGMHWVRQAPGKGLEWLSYISGGSSYIFYADSVRGRFTISRDNSENALYLQMNSLRAEDTAVYYCARILRGGSGMDLWGQGTLVTVSS
VL: QSVLTQPPSASGTPGQRVTISCTGSSSNIGAGYNVYWYQQLPGTAPKLLIYGNINRPSGVPDRFSGSKSGTSASLAISGLRSEDEADYYCAAWDKSISGLVFGGGTKLTVL
[1]
  effect on tumour growth in chemo-resistant tumours: synergises with FOLFIRINOX
[2]; bladder cancer cells in hCD40tg mice
  immunity to tumour re-challenge: at least 5 months
[2]; combined with checkpoint inhibitors, vaccination or chemotherapy (e.g. mFOLFIRINOX), hCD40tg mice
  effect on tumour growth and survival in combination: synergistically enhanced effect
[2]; human tumours in NSG mice and hCD40tg mice
  anti-tumour efficacy in vivo: immune-mediated and antibody-dependent cell-mediated cytotoxicity (ADCC)-dependent anti-tumour efficacy
